How the values were obtained:
EBOV GP = target: T1, EBOV GP (Ebola virus (EBOV), UniProt Q05320 33-650); test: ELISA, EBOV GP coated at 1 μg/mL
T1 sequence: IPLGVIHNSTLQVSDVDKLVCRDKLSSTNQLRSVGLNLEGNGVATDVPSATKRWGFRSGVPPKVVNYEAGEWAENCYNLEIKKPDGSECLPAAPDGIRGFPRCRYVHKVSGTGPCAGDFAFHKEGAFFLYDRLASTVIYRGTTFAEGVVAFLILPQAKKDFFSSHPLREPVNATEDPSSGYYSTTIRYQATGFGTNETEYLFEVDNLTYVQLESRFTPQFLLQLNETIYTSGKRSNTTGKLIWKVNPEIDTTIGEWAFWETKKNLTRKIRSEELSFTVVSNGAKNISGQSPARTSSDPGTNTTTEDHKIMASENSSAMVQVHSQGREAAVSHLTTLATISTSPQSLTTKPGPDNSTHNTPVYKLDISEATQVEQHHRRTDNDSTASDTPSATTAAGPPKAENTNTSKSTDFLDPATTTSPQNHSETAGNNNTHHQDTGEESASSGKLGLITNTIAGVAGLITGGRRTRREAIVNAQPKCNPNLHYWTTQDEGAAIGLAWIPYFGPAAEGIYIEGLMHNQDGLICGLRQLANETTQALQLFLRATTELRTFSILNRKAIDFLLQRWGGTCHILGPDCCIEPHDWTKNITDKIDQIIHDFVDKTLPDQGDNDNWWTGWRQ

GP 95-295 = GP 95-295 (Ebola virus (EBOV), UniProt Q05320 95-295); test: ELISA on coated truncated GP
GP1 = GP1 (Ebola virus (EBOV), UniProt Q05320 33-501); test: ELISA on coated truncated GP
sGP = sGP (Ebola virus (EBOV), UniProt P60170 33-295); test: ELISA on coated truncated GP

B1: 抗埃博拉病毒糖蛋白GP1亚基的单克隆抗体4F1 (antibody, V domains shown)
VH: EVQLVESGGGLVQPGGSLRLSCAASGFSFRIYDMHWVRQVTGRGLEWVSAIGSASDTYYRDSVKGRFTISRENAKNSLYLQMNSLRAGDTAVYYCARASFGELMFDLWGQGTLVTVSS
VL: DIQMTQSPSSLSLSPGERATLSCRASQSVGSSLAWYQQKPGQAPRLLIYAASSRATGFPDRFSGSGSGTDFTLTISRLEPEDFAVYYCQQYGGSPLTFGGGTKVEIKT
- EC50 (EBOV GP): 5.7 ng/mL
- EC50 (GP 95-295): 33 ng/mL
- fold decrease of binding activity relative to GPdTM (GP 95-295): ~5 fold
- EC50 (GP1): 7.8 ng/mL
- EC50 (sGP): 3.9 ng/mL
